B1: TPR 5TU (parent)
chain: GGAUCUUCUCGAUCUAACAAAAAAGACAAAUCUGCCACAAAGCUUGAGAGCAUCUUCGGAUGCAGAGGCGGCAGCCUUCGGUGGCGCGAUAGCGCCAACGUUCUCAACUAUGACACGCAAAACGCGUGCUCCGUUGAAUGGAGUUUAUCAUG

This sample holds only a part of the variants without activity.

The variants in the data set derive from B1. Description: polymerase ribozyme fitness, log enrichment relative to wild type (log ratio); higher = more active; in vitro selection for triplet polymerase activity. The procedure, abridged:
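In triplicate, a single round of in vitro selection was run on each mutant library, PCR-built and transcribed, covering one subunit of a heterodimeric triplet polymerase ribozyme. Frozen incubation at −7 °C followed annealing with a biotinylated primer, partner subunit and triplets, and extended constructs were then gel-excised, streptavidin-captured and taken through RT-PCR. Fitness is the logarithm of genotype enrichment over wild-type enrichment, from inverse-variance-weighted replicate averages of Illumina-sequenced inputs and outputs. […] only genotypes with ≥10 input reads and ≥1 read per output were kept.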
With GGAUCUUCUCGAUCUAACAAAAAAGACAAAUCUGCCACAAAGCUUGAGAGCAUGUUCGGAUGCAGAGGCGGCAGCCUUCGGUGGCGCGUUAGCGUCCACGUUCUCAACUAUGACACGCAAAACGCGUGCUCCGUUGAAUGGAGUUUAUCAUG [C54G A89U C95U A97C], the “polymerase ribozyme fitness (log ratio)” value is -2.48. The figure for GGAUCUUCUCGAUCUAACAAAAAAGACAAAUCUGCCACAAAGCUUGAGAGCAUCUUCCGAUGCAGAGGCGGCAGCCUUCGGUGGCGCGAUAGCACCAACGUUCUCAACUAUGACACGCAAAACGCGUGCUCCGUUGAAUGGAGUUUAUCAUG [G58C G94A] is -0.64. On to GGAUCCUCUCGAUCUAACAAAAAAGACAAAUCUGCCACAAAGCUUGAGAGCAUCUUCGGAUGCAGAGGCGGCAGCCUUCGGUGGCGCGAUAGCGCGAACGUUCUUAACUAUGACACGCAAAACGCGUGCUCCGUUGAAUGGAGUUUAUCAUG [U6C C96G C105U], for which the “polymerase ribozyme fitness (log ratio)” value was -0.764. With GGAUCAUCUCGAUCUCACAAAAAAGAUAAAGCUGCCACAAAGCUUGAGAGCCUGUUCGGAUGCAGAGGCGGCAGCCUUCGGUGGCGCGAUAGCGCCAACGUUCUCAACUAUGACACGUAAAACGCGUGCUCCGUUGAAUGGAGUUUAUCAUG [U6A A16C C27U U31G A52C C54G C118U], the “polymerase ribozyme fitness (log ratio)” value is at most -4.2. Regarding GGAUCUUCUCGAUCUAACAAAAAAGACAAAUCUGCCACAAAGCUUGAGAGCAUCUUCGGAUGCAGAGGCGGCAGCCUUCGGUGGCGCGAUAGAGCCAACGUUCUCAACUAUGACACGCGUAACGCGUGCUCCGUUGAAUGGAGUUUAUCAUG [C93A A119G A120U], the “polymerase ribozyme fitness (log ratio)” value is -2.53. As for GGAUCUUCUCGAUCUAACAAAAAACACAAAUCUGCCACUAAGCCUGAGAGCAUCUUCGGAUGCAGAGGCGGCAGCCUUCGGUGGCGCGAUGGCGUCAACGUUCUCAACUAUGACACGCAAAACGCGUGCUCCGUUGAAUGGAGUUUAUCAUG [G25C A39U U44C A91G C95U], the “polymerase ribozyme fitness (log ratio)” value was at most -4.2. As to GGAUCUUCUCGAUCUAACGAAAAAGACAAAUCUGCCACAAAGCUUGAGAGCAUCUUCGGAUGCAGAGGCGGCAGCCUUCGGUGGCGCGCUAGCGCCAACGUUCUCAACUAUGACACGCAAAACGCGUGCUCCGGUGAAUGGAGUUUAUCAUG [A19G A89C U134G], the “polymerase ribozyme fitness (log ratio)” value is -3.68.

For the variant GGAUCUUCUCGAUCUAACAAAAAAGACAAAUCUGCCACAAUGCUUGAGAGCAUCUUUGGAUGCAGAGGCGGCAGCCUUCGGUGGUGCGAUAGCGCCAACGUUCUCAACUAUGACACGCAAAACGCGUGCUCCGUUGAAUGGAGUUUAUCAUG [A41U C57U C85U], the “polymerase ribozyme fitness (log ratio)” value was -1.12. In the case of GGAUCUUCUCGAUCUAACAAAAAAGACAAAUCUGCCACAAACCUUGAGAGCAUCUUCGGAUGCAGAGGCGGCAGCCUUCGGUAGCGCGAUAGCGCCAACGUUCUCUACUAUGACACGCAAAACGCGUGCUCCGUUGAAUGGAGUUUAUCAUG [G42C G83A A106U], the “polymerase ribozyme fitness (log ratio)” value is at most -4.2.

Turning to GGAUCUUCUCGAUCUAACAAAAAAGACAAAUCUGCCACAAAGCUUGAGGGCAUAUUCGGAUGCAGAGGCGGCAGCCUUCGGUGGCGCGAUAGCGCCAACGUUCUCAACUAUGACAGGCAAUACGCGUGCUCCGUUGAAUGGAGUUUAUCAUG [A49G C54A C116G A121U], the “polymerase ribozyme fitness (log ratio)” value was -2.34. The figure for GGAUCUUCUCGAUCUAACAAAAAAGACAAAUCUGCCACAUAGCUUGAGAGCAUCUUCGCAUGCAGAGGCGGCAGCCUUCGGUGGCGCGAUAGCGCCAACGUUCUCAACUAUGACACGCAAAACGCGUGCUCUGUUGAAUGGAGUGUAUCAUG [A40U G59C C132U U145G] is -1.94; for GGAUCUUCUCGAUCUAACAAAAAAGAUAAAUAUGCCACAAAGCUUUCGAGCAACUUCGGAUGCAGAGGCGGCAGCCUUCGGUGGCGGGAUAGCGCCAACGUUCUCAACUAUGACACGCAAAACGCGUGCUCCGUUGAAUGGAGUUUAUCAUG [C27U C32A G46U A47C U53A C87G] it is at most -4.2; for GGAUCUUCUCGAUCUAACAAAAAAGACAAAUCUGCCACAACGCUUGACAGCAUCUACGGAUGCAGAGGCGGCAGCCUUCGGUGGCGCGCUAGCGCCAACGUUUUCAACUAUGACACGCAAAACGCGUGCUCCGUUGAAUGGAGUUUAUCAUG [A41C G48C U56A A89C C103U] it is -2.34. With GGAUCUUCUCGAUCUAACAAAAAAGACAAAUCUGCCACAAAGCUUGGGAGCAUCUUCGGAUGCAGAGGCGGCAGCCUUCGGUGGCGCGAAAGCGCCAACGUUCUCAACUAUGACACGCAAAACGCGUGCUCCGUUGAAUGGAGUUUAUCAUG [A47G U90A], the “polymerase ribozyme fitness (log ratio)” value was -3.82. As for GGAUCUUCUCGAUCUAACAAAAUAGACAAAUCUGCCACAAAGCUUGAGCGCAUCUUCGGAGGCAGAGGCGGCAGCCUUCGGUGGCGAGAUAGCGCCAACGUUCUCAACUAUGACACGCAAAACGCGUGCUCCGUUGAAUGGAGUUUAUCAUG [A23U A49C U61G C87A], the “polymerase ribozyme fitness (log ratio)” value is at most -4.2. Turning to GGAUCUUCUCGAUCUAACAAAAAAGACAAAUCUGCCACAAAGCUUGAGAGCAUCUUCGGAUGCAGAGGCGGCAGCCUUCGGUGGCGCGAUAGCGCCAACGUUCUCAUCGAUGACACGCAAAACGCGUGCUCCGUUGAAUGGAGUUUAUCAUG [A107U U109G], the “polymerase ribozyme fitness (log ratio)” value was at most -4.2. For the variant GGAUCUUCUCGAUUUAACAAGAACGACUAAUCUGCCACAAAGCUUGAGAGCACCUUCGGAUGCAGAGGCGGCAGUCUUCGGUGGCGCGAUAGCGCCAACGUUCUCAACUAUGACACGCAAAACGCGUGCUCCGUUGAAUGGAGUUUAUCAUG [C14U A21G A24C A28U U53C C75U], the “polymerase ribozyme fitness (log ratio)” value was at most -4.2. In the case of GGAUCUUGUCGAUCUAACAAAAAAGACAAAUCUGCCACAAUGCUUGAGCGCAUCUUCGGAUACAGAGGCGGCAGCCUUUGGUGGUGCGAUAGCGCUAACGUUCUCAACUAUGAGGCGCAAAACGCGUGCUCCGUUGAAUGGAGUUUAUCAUG [C8G A41U A49C G62A C79U C85U C96U C114G A115G], the “polymerase ribozyme fitness (log ratio)” value was at most -4.2. The figure for GGAUCUUCUCGAUCUAACAGAAAAGACAAAUCUGCCACAAAGCUUGAGAGCAUCUUCGGAUGCAGAGGCGGCAGCCUUCGGUGGCGCGAUAGCGCUAACGUUCUCAACUAUGACACGCAAAACGCGUGCUCCGUUGAAUGGAGUUUAUCAUG [A20G C96U] is -0.654.

The values are drawn from the RNAGym collection of RNA variant scans (doi:10.1073/pnas.2313332121).
